The record followed here is publication doi:10.1101/2022.03.03.481873v1.

Common to all, as to assay: purified protein
For data set [1], the system named is O=C(O)CCC(=O)C1=CC=C[C@@H](O)[C@@H]1C(=O)O. Conditions: 50 mM Tris pH 8.0, 0.1 mM MnCl2, 25 °C, Amycolatopsis numbering.
Substrate in data set [2]: O=C(O)CCC(=O)C1=CC=C[C@@H](O)[C@@H]1C(=O)O
Conditions: 50 mM Tris pH 8.0, 0.1 mM MnCl2, 25 °C.

Substrate in data set [3]: O=C(O)CCC(=O)N[C@@H](C(=O)O)c1ccccc1
Conditions: 200 mM Tris pH 8.0, 0.1 mM MnCl2, 25 °C.

Substrate in data set [4]: C[C@H](N)C(=O)N[C@@H](CCC(=O)O)C(=O)O
In kind it is biochemical, Escherichia coli. Conditions: 50 mM Tris pH 8.0, 10 mM MgCl2, 25 °C.

Substrate in data set [5]: C[C@H](N)C(=O)N[C@@H](CCC(=O)O)C(=O)O
In kind it is biochemical, Bacillus subtilis. Conditions: 50 mM Tris pH 8.0, 10 mM MgCl2, 25 °C.

Turning to “LiNSAR/OSBS (Listeria innocua Clip11262; R266Q)”, in data set [1], the Km was 163 ± 15 µM and the kcat came out at 0.57 ± 0.02 s⁻¹.

B1: RcNSAR/OSBS (Roseiflexus castenholzii DSM 13941) (protein)
chain: MKIESITLHHIDMPLVAPFETSFGRETHRPCILIEMRADGLTGWGECVAGAGPWYAYETIGTAWHIISDFLAPMIVGQEITEPIGIVERFASVRGHPMARAAVEAAFWDLYAQARGVSLARLIGATRDRVTVGVSVGIELTLEAQLASIERFVAAGYARIKLKIKPGWDVAVVRAVRERWPDIALQVDANSAYTPDDAPIFRELDEMNLLLIEQPLHHDDIVDHARLQAQISTPICLDESIHSPEHARWALDIDACRVINIKIGRVGGLTAARQIHDLCAERGVPVWCGGMLETNVGRAVNLALAALPNFALPGDISASARYYHRDIAAPDFVLNDDSTITVPDTPGTGVAVLPERLRDVQVREVIIGKG
For the molecule B1, the Km was determined as 116 ± 15 µM in data set [2] and 900 ± 100 µM in data set [3]. Besides, the kcat in data set [2] is 54.6 ± 2 s⁻¹; in data set [3], 12.7 ± 0.4 s⁻¹.

B2: EcDE (Escherichia coli K-12) (protein)
chain: MRTVKVFEEAWPLHTPFVIARGSRSEARVVVVELEEEGIKGTGECTPYPRYGESDASVMAQIMSVVPQLEKGLTREELQKILPAGAARNALDCALWDLAARRQQQSLADLIGITLPETVITAQTVVIGTPDQMANSASTLWQAGAKLLKVKLDNHLISERMVAIRTAVPDATLIVDANESWRAEGLAARCQLLADLGVAMLEQPLPAQDDAALENFIHPLPICADESCHTRSNLKALKGRYEMVNIKLDKTGGLTEALALATEARAQGFSLMLGCMLCTSRAISAALPLVPQVSFADLDGPTWLAVDVEPALQFTTGELHL
Take B2: in data set [4], the Michaelis-Menten constant (Km) amounted to 340 ± 60 µM and the kcat was 11.4 ± 0.7 s⁻¹.

B3: LiNSAR/OSBS (Listeria innocua Clip11262) (protein)
chain: MYFQKARLIHAELPLLAPFKTSYGELKSKDFYIIELINEEGIHGYGELEAFPLPDYTEETLSSAILIIKEQLLPLLAQRKIRKPEEIQELFSWIQGNEMAKAAVELAVWDAFAKMEKRSLAKMIGATKESIKVGVSIGLQQNVETLLQLVNQYVDQGYERVKLKIAPNKDIQFVEAVRKSFPKLSLMADANSAYNREDFLLLKELDQYDLEMIEQPFGTKDFVDHAWLQKQLKTRICLDENIRSVKDVEQAHSIGSCRAINLKLARVGGMSSALKIAEYCALNEILVWCGGMLEAGVGRAHNIALAARNEFVFPGDISASNRFFAEDIVTPAFELNQGRLKVPTNEGIGVTLDLKVLKKYTKSTEEILLNKGWS
Take B3: the Km is 155 ± 16 µM in data set [2] and 1000 ± 270 µM in data set [3]. Further, the results for the kcat in data set [2] and in data set [3] were 216 ± 7 s⁻¹ and 3.74 ± 0.5 s⁻¹, respectively.

B4: EfNSAR/OSBS (Enterococcus faecalis V583) (protein)
chain: MNIQSIETYQVRLPLKTPFVTSYGRLEEKAFDLFVITDEQGNQGFGELVAFEQPDYVQETLVTERFIIQQHLIPLLLTEAIEQPQEVSTIFEEVKGHWMGKAALETAIWDLYAKRQQKSLTEFFGPTRRKIPVGISLGIQEDLPQLLKQVQLAVEKGYQRVKLKIRPGYDVEPVALIRQHFPNLPLMVDANSAYTLADLPQLQRLDHYQLAMIEQPFAADDFLDHAQLQRELKTRICLDENIRSLKDCQVALALGSCRSINLKIPRVGGIHEALKIAAFCQENDLLVWLGGMFESGVGRALNLQFASQPTFSFPGDISATERYFYEDIITEPFILEQGTMTVPQGLGIGVTLSQTNLLKYSQYQKIM
In the case of B4, in data set [2], the Km worked out at 17 ± 3 µM and the turnover number (kcat) was 160 ± 7 s⁻¹. In data set [3], the Km worked out at 1500 ± 150 µM and the kcat came to 34 ± 1 s⁻¹.

B5: BsDE (Bacillus subtilis subsp. subtilis str. 168; K271Q) (protein)
chain: MKIIRIETSRIAVPLTKPFKTALRTVYTAESVIVRITYDSGAVGWGEAPPTLVITGDSMDSIESAIHHVLKPALLGKSLAGYEAILHDIQHLLTGNMSAKAAVEMALYDGWAQMCGLPLYQMLGGYRDTLETDYTVSVNSPEEMAADAENYLKQGFQTLKIKVGKDDIATDIARIQEIRKRVGSAVKLRLDANQGWRPKEAVTAIRKMEDAGLGIELVEQPVHKDDLAGLKKVTDATDTPIMADESVFTPRQAFEVLQTRSADLINIKLMQAGGISGAEKINAMAEACGVECMVGSMIETKLGITAAAHFAASKRNITRFDFDAPLMLKTDVFNGGITYSGSTISMPGKPGLGIIGAALLKGEKEQ
B5: in data set [5], the Km was 508 ± 165 µM and the kcat came to 0.23 ± 0.03 s⁻¹.

B6: BsDE (Bacillus subtilis subsp. subtilis str. 168) (protein)
chain: MKIIRIETSRIAVPLTKPFKTALRTVYTAESVIVRITYDSGAVGWGEAPPTLVITGDSMDSIESAIHHVLKPALLGKSLAGYEAILHDIQHLLTGNMSAKAAVEMALYDGWAQMCGLPLYQMLGGYRDTLETDYTVSVNSPEEMAADAENYLKQGFQTLKIKVGKDDIATDIARIQEIRKRVGSAVKLRLDANQGWRPKEAVTAIRKMEDAGLGIELVEQPVHKDDLAGLKKVTDATDTPIMADESVFTPRQAFEVLQTRSADLINIKLMKAGGISGAEKINAMAEACGVECMVGSMIETKLGITAAAHFAASKRNITRFDFDAPLMLKTDVFNGGITYSGSTISMPGKPGLGIIGAALLKGEKEQ
On to B6, for which, in data set [5], the Km turned out to be 452 ± 120 µM and the turnover number (kcat) was 21.4 ± 2 s⁻¹.

One may read the Km as the substrate concentration at which the rate is half of its maximum. Usually kcat stands for the maximal rate divided by the concentration of active sites.
